Measured values as given in the Immune Epitope Database (IEDB).

Legend:
HLA-A*68:02 [1] = assay: IEDB peptide-MHC binding, purified MHC/competitive/radioactivity; ≥ and ≤ were set here for values at or beyond the usual limits of such assays; details: source organism: Vaccinia virus WR
HLA-A*26:01 = assay: IEDB peptide-MHC binding, cellular MHC/competitive/fluorescence; ≥ and ≤ were set here for values at or beyond the usual limits of such assays; details: source organism: Vaccinia virus WR
HLA-A*23:01 [2] = assay: as above; details: source organism: Vaccinia virus WR
HLA-A*30:02 = assay: as above; details: source organism: Vaccinia virus WR
HLA-A*02:06 [3] = assay: as above; details: source organism: Vaccinia virus WR
HLA-A*02:01 [4] = assay: as above; details: source organism: Vaccinia virus WR
HLA-A*01:01 = assay: as above; details: source organism: Vaccinia virus WR
HLA-A*24:02 [5] = assay: as above; details: source organism: Vaccinia virus WR
HLA-A*29:02 = assay: as above; details: source organism: Vaccinia virus WR
HLA-A*02:02 [6] = assay: as above; details: source organism: Vaccinia virus WR
HLA-A*02:03 [7] = assay: as above; details: source organism: Vaccinia virus WR
HLA-A*68:01 [8] = assay: IEDB peptide-MHC binding, purified MHC/competitive/radioactivity; ≥ and ≤ were set here for values at or beyond the usual limits of such assays
HLA-A*02:06 [9] = assay: as above
HLA-A*31:01 [10] = assay: as above
HLA-A*03:01 [11] = assay: as above
HLA-A*02:02 [12] = assay: as above
HLA-A*02:03 [13] = assay: as above
HLA-A*11:01 = assay: IEDB peptide-MHC binding, cellular MHC/competitive/fluorescence; ≥ and ≤ were set here for values at or beyond the usual limits of such assays
HLA-A*68:02 [14] = assay: as above
HLA-A*02:01 [15] = assay: IEDB peptide-MHC binding, purified MHC/competitive/radioactivity; ≥ and ≤ were set here for values at or beyond the usual limits of such assays; details: source organism: Vaccinia virus WR
HLA-A*33:01 = assay: IEDB peptide-MHC binding, cellular MHC/competitive/fluorescence; ≥ and ≤ were set here for values at or beyond the usual limits of such assays
HLA-A*23:01 [16] = assay: IEDB peptide-MHC binding, purified MHC/competitive/radioactivity; ≥ and ≤ were set here for values at or beyond the usual limits of such assays; details: source organism: Vaccinia virus WR
HLA-A*68:01 [17] = assay: IEDB peptide-MHC binding, cellular MHC/competitive/fluorescence; ≥ and ≤ were set here for values at or beyond the usual limits of such assays; details: source organism: Mammarenavirus juninense
HLA-A*31:01 [18] = assay: as above; details: source organism: Mammarenavirus juninense
HLA-A*03:01 [19] = assay: as above; details: source organism: Mammarenavirus juninense
HLA-A*24:02 [20] = assay: IEDB peptide-MHC binding, purified MHC/competitive/radioactivity; ≥ and ≤ were set here for values at or beyond the usual limits of such assays; details: source organism: Vaccinia virus WR
[21] = source organism: Hepatitis B virus
[22] = source organism: Vaccinia virus WR
[23] = source organism: Mammarenavirus juninense

EQRRSTIFDI
IC50 (HLA-A*68:02 [1]): 1.03 µM
IC50 (HLA-A*26:01): ≥ 70 µM
IC50 (HLA-A*23:01 [2]): 50.8 µM
IC50 (HLA-A*30:02): ≥ 70 µM
IC50 (HLA-A*02:06 [3]): 25.5 µM
IC50 (HLA-A*02:01 [4]): 22.5 µM
IC50 (HLA-A*01:01): 17.7 µM
IC50 (HLA-A*24:02 [5]): ≥ 70 µM
IC50 (HLA-A*29:02): ≥ 70 µM
IC50 (HLA-A*02:02 [6]): 23 µM
IC50 (HLA-A*02:03 [7]): 11.5 µM

FIIFLFILL
IC50 (HLA-A*68:01 [8]; [21]): 3.2 µM
IC50 (HLA-A*02:06 [9]; [21]): 0.9 µM
IC50 (HLA-A*31:01 [10]; [21]): 0.45 µM
IC50 (HLA-A*03:01 [11]; [21]): 0.953 µM
IC50 (HLA-A*02:02 [12]; [21]): 0.627 µM
IC50 (HLA-A*02:03 [13]; [21]): 1.05 µM
IC50 (HLA-A*11:01; [21]): 8.98 µM
IC50 (HLA-A*68:02 [14]; [21]): 10.1 µM

LQDIVNEHDI
IC50 (HLA-A*26:01): ≥ 70 µM
IC50 (HLA-A*23:01 [2]): ≥ 70 µM
IC50 (HLA-A*30:02): ≥ 70 µM
IC50 (HLA-A*02:06 [3]): 10.8 µM
IC50 (HLA-A*68:02 [14]; [22]): ≥ 70 µM
IC50 (HLA-A*02:01 [4]): 23.3 µM
IC50 (HLA-A*01:01): ≥ 70 µM
IC50 (HLA-A*24:02 [5]): ≥ 70 µM
IC50 (HLA-A*29:02): ≥ 70 µM
IC50 (HLA-A*02:02 [6]): 7.63 µM
IC50 (HLA-A*02:03 [7]): 38.2 µM

SQAKKPEVRI
IC50 (HLA-A*68:02 [1]): 1.67 µM
IC50 (HLA-A*02:03 [13]; [22]): 2.37 µM
IC50 (HLA-A*26:01): ≥ 70 µM
IC50 (HLA-A*23:01 [2]): 51.7 µM
IC50 (HLA-A*30:02): ≥ 70 µM
IC50 (HLA-A*02:06 [3]): 5.86 µM
IC50 (HLA-A*02:01 [4]): 46.3 µM
IC50 (HLA-A*01:01): ≥ 70 µM
IC50 (HLA-A*24:02 [5]): 32.1 µM
IC50 (HLA-A*29:02): ≥ 70 µM
IC50 (HLA-A*02:02 [6]): 10.7 µM

LLTACTIFYI
IC50 (HLA-A*68:01 [8]; [22]): 4.37 µM
IC50 (HLA-A*02:01 [15]): 0.0057 µM
IC50 (HLA-A*31:01 [10]; [22]): 0.627 µM
IC50 (HLA-A*03:01 [11]; [22]): 0.829 µM
IC50 (HLA-A*33:01; [22]): 7.39 µM
IC50 (HLA-A*11:01; [22]): 18.8 µM

VQSVLRDISI
IC50 (HLA-A*23:01 [16]): 3.5 µM
IC50 (HLA-A*02:06 [9]; [22]): 0.132 µM
IC50 (HLA-A*68:02 [1]): 1.29 µM
IC50 (HLA-A*02:01 [15]): 0.497 µM
IC50 (HLA-A*02:02 [12]; [22]): 0.078 µM
IC50 (HLA-A*02:03 [13]; [22]): 0.541 µM
IC50 (HLA-A*26:01): 6.66 µM
IC50 (HLA-A*30:02): 19.7 µM
IC50 (HLA-A*01:01): 15.6 µM
IC50 (HLA-A*24:02 [5]): 25.4 µM
IC50 (HLA-A*29:02): ≥ 70 µM

QQFANVISKI
IC50 (HLA-A*02:06 [9]; [22]): 0.863 µM
IC50 (HLA-A*68:02 [1]): 1.05 µM
IC50 (HLA-A*02:02 [12]; [22]): 0.051 µM
IC50 (HLA-A*02:03 [13]; [22]): 0.0017 µM
IC50 (HLA-A*26:01): ≥ 70 µM
IC50 (HLA-A*23:01 [2]): 12.2 µM
IC50 (HLA-A*30:02): 9.29 µM
IC50 (HLA-A*02:01 [4]): 7.32 µM
IC50 (HLA-A*01:01): ≥ 70 µM
IC50 (HLA-A*24:02 [5]): ≥ 70 µM
IC50 (HLA-A*29:02): ≥ 70 µM

VQTIVFIWFI
IC50 (HLA-A*02:01 [15]): 0.952 µM
IC50 (HLA-A*26:01): 16 µM
IC50 (HLA-A*23:01 [2]): 32.8 µM
IC50 (HLA-A*30:02): 13.3 µM
IC50 (HLA-A*01:01): 5.13 µM
IC50 (HLA-A*24:02 [5]): ≥ 70 µM
IC50 (HLA-A*29:02): 20.3 µM

ACQEAVKLK
IC50 (HLA-A*68:01 [17]): ≥ 70 µM
IC50 (HLA-A*33:01; [23]): ≥ 70 µM
IC50 (HLA-A*11:01; [23]): 6.7 µM
IC50 (HLA-A*31:01 [18]): ≥ 70 µM
IC50 (HLA-A*03:01 [19]): 16.7 µM

FQESFYEDI
IC50 (HLA-A*23:01 [16]): 0.263 µM
IC50 (HLA-A*02:06 [9]; [22]): 0.185 µM
IC50 (HLA-A*24:02 [20]): 0.44 µM
IC50 (HLA-A*02:02 [12]; [22]): 2.28 µM
IC50 (HLA-A*02:03 [13]; [22]): 4.42 µM
IC50 (HLA-A*26:01): ≥ 70 µM
IC50 (HLA-A*30:02): ≥ 70 µM
IC50 (HLA-A*68:02 [14]; [22]): 36.8 µM
IC50 (HLA-A*02:01 [4]): 12.9 µM
IC50 (HLA-A*01:01): ≥ 70 µM
IC50 (HLA-A*29:02): 58.2 µM

CQCTVQEFI
IC50 (HLA-A*02:06 [9]; [22]): 1.13 µM
IC50 (HLA-A*68:02 [1]): 1.73 µM
IC50 (HLA-A*02:01 [15]): 2.2 µM
IC50 (HLA-A*02:02 [12]; [22]): 2.05 µM
IC50 (HLA-A*02:03 [13]; [22]): 4.79 µM
IC50 (HLA-A*26:01): 24.8 µM
IC50 (HLA-A*23:01 [2]): 44.5 µM
IC50 (HLA-A*30:02): ≥ 70 µM
IC50 (HLA-A*01:01): 28.5 µM
IC50 (HLA-A*24:02 [5]): 29 µM
IC50 (HLA-A*29:02): 20.5 µM

LQQNNSFII
IC50 (HLA-A*02:06 [9]; [22]): 0.423 µM
IC50 (HLA-A*02:01 [15]): 1.59 µM
IC50 (HLA-A*24:02 [20]): 2.36 µM
IC50 (HLA-A*26:01): 11.5 µM
IC50 (HLA-A*23:01 [2]): 8.91 µM
IC50 (HLA-A*30:02): 40.8 µM
IC50 (HLA-A*68:02 [14]; [22]): 69.8 µM
IC50 (HLA-A*01:01): 40.2 µM
IC50 (HLA-A*29:02): 18.6 µM
IC50 (HLA-A*02:02 [6]): 11.7 µM
IC50 (HLA-A*02:03 [7]): 5.17 µM
